Data reported in PMC2191783.

B1: c-fms -150 PU-ets wild type (dsDNA)
DNA 1: GCCCAAGGAGGAGGAAGAGGAAAACAAG
DNA 2: CTTGTTTTCCTCTTCCTCCTCCTTGGGC
B2: c-fms -150 mutant M1 (MT-1) (dsDNA)
DNA 1: GCCCAAGTAGTAGTAAGAGTAAAACAAG
DNA 2: CTTGTTTTACTCTTACTACTACTTGGGC

Target: PU.1 (recombinant) (mouse, UniProt P17433 1-272)
Assay: EMSA

Binder | binding result
B1 | binds
B2 | no binding
